From PMC4376295 (Nature communications, 2014)
Residue numbers refer to the chain shown, from its start. In names and notes the source's numbering stands.

B1: NurA D58A (nuclease inactivated) (enzyme, Sulfolobus solfataricus, UniProt Q97WH1 1-339, looked up)
chain: MIRKIYDKLVESHNEIKNQIYNIANYLKQEIQDKVNEYWNEYVINHEQSETCKFVAIAGGSFGRPMRIGIVYAVGAESVIGDNKGVKTLSEDGQIGIFKPGNDAQERISLLMEALELSLALRDGSKGDYILMDGSLSKKIGNKVDIQQFSDEELKLIRNVDLNGIISIKDERKMRDLLMLLNQFLVSKIIEEYDGNVLWISKVSRGRDLFGTDYPDITVLELFTEKRGFSKLIIKNIDIEKISEIPEIEVLRKMEYTTFYTRLDNGKRVIRVDIVGRVDEKIVKEIMDRLSGVSIKGYPFPLLKAHMDVRFSAMDREKIIKLVGSKLHKDIEWWPSQFY
B2: native NurA (S. solfataricus) (enzyme, Sulfolobus solfataricus, UniProt Q97WH1 1-339, looked up)
chain: B1 chain with A58D

Key:
[1] = molecular target: T1, HerA harbouring both M51L and M82L mutations (Sulfolobus solfataricus, UniProt Q97WG8 1-500, M51L | M82L); assay: SEC-coupled SAXS
T1 sequence (looked up): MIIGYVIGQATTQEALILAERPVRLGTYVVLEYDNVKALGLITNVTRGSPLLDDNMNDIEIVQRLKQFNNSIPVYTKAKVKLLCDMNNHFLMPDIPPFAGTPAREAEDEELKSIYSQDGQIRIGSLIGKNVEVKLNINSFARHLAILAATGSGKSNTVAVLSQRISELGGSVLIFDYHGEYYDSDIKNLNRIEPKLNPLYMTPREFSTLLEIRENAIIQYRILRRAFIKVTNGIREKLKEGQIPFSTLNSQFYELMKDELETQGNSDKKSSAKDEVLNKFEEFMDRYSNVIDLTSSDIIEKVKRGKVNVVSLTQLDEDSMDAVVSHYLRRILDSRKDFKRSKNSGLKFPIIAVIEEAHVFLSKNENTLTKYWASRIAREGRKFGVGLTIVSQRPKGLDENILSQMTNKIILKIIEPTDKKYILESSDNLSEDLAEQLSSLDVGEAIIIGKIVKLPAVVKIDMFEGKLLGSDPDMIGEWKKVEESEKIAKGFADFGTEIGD

SEC-coupled SAXS = molecular target: the molecule itself; assay: SEC-coupled SAXS
[2] = molecular target: T2, native HerA (S. solfataricus, Sso2251) (Sulfolobus solfataricus, UniProt Q97WG8 1-500); assay: SEC
T2 sequence (looked up): T1 sequence (looked up) with L51M, L82M

Binder	binding result [1]	binding result (SEC-coupled SAXS)	binding result [2]
B1	binds	binds	–
B2	–	–	binds
